Tests used:
[1] = biological target: human serum albumin (HSA) (human, UniProt P02768 P02768:25-609); test: ELONA; immobilized HSA control, no positive signal; conditions: label: 3'-Cy5 on EpCAM strand for flow cytometry; two aptamers joined by 23 bp dsRNA adaptor with 2-3 unpaired base linkers
EpCAM = biological target: T1, EpCAM (human, UniProt P16422 P16422:24-265); test: ELONA; bridging of 1 uM free EpCAM to plate-immobilized CD44; simple mixture of the two aptamers gave background only; conditions: tags: Thermo Fisher Scientific; label: 3'-Cy5 on EpCAM strand for flow cytometry; two aptamers joined by 23 bp dsRNA adaptor with 2-3 unpaired base linkers
T1 sequence: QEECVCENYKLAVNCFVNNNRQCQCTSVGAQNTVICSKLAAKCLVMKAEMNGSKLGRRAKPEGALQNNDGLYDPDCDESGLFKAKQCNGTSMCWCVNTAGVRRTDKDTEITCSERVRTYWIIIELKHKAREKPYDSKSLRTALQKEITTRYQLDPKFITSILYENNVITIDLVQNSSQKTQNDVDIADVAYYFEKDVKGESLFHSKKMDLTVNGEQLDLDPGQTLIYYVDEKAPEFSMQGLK
Description: Serially diluted recombinant human CD44 protein (0-500 nM) was loaded into 96-well microtiter plates at 50 μg/well in triplicates and incubated overnight at 4° C. Plates were further blocked with 5% BSA/sperm DNA (500 μg/ml)/yeast tRNA (500 μg/ml)/0.05% Tween-20 in PBS/T buffer overnight. CD44-EpCAM conjugates or simply mixed CD44 and EpCAM aptamers were incubated with 1 μM recombinant human EpCAM for 4 h at room temperature. For simply mixed CD44 and EpCAM, prior putting CD44 and EpCAM aptamers together, CD44 aptamer was blocked with ssDNA (5′-[…]-3′) (SEQ ID NO: 11). […] Detection of HRP was performed by incubating with 100 µL/well soluble Turbo TMB-ELISA substrate for 5 min, then reaction was quenched with 100 μl/well Stop solution and the absorbance at 450 nm was measured using TECAN Infinite M 200 plate reader.
The binding of bispecific CD44-EpCAM aptamer was examined by ELISA (FIG. 1B). […] As expected (FIG. 1C), CD44-EpCAM bispecific aptamers successfully linked to plate-immobilized CD44 protein and free EpCAM proteins, yielding CD44 protein concentration-dependent positive signals, whereas only the background signal was detected in a control experiment with a simple mixture of CD44 aptamer and EpCAM aptamer. […]

human serum albumin (HSA), sequence (P02768 25-609, one chain of several): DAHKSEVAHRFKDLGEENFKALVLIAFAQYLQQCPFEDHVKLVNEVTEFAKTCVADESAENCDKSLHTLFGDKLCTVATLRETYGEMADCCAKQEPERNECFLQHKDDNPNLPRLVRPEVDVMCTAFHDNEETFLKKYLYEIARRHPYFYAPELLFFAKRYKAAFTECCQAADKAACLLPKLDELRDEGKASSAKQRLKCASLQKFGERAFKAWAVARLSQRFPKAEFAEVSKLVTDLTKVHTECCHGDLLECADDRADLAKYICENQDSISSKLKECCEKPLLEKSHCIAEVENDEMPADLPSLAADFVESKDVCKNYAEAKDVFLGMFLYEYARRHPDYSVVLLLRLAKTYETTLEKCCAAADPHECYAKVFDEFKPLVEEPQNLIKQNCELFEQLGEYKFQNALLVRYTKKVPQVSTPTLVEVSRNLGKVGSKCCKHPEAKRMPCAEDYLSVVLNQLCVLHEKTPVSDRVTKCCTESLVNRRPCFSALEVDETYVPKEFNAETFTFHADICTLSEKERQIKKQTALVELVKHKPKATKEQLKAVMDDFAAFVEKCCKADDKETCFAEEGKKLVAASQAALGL

B1: CD44-EpCAM bispecific aptamer (ssRNA)
RNA 1: GGGAUGGAUCCAAGCUUACUGGCAUCUGGAUUUGCGCGUGCCAGAAUAAAGAGUAUAACGUGUGAAUGGGAAGCUUCGAUAGGAAUUCGGAAAAGCUUGUUCAGGAGAUGAAAUU
RNA 2: GCGACUGGUUACCCGGUCGUAAAAUUUCAUCUCCUGAACAAGCUU
modifications: RNA (U for T in printed DNA template), 2'-F pyrimidines throughout
B1: no binding [1]; binds (EpCAM).

From patent US20200157542, “Bispecific Aptamer for Treating Cancer” (Augusta University Research Institute, Inc., published 2020)
